Laboratory results reported in article PMC6726503.

Biological target: T1, human TGF-β2 (human)
T1 sequence (P61812 303-414, looked up): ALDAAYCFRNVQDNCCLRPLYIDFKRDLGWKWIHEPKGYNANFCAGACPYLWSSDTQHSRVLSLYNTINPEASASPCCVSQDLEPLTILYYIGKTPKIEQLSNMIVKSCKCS
Assay: SPR

Kd: 0.511 nM | koff: 0.000755 s⁻¹ | kon: 1.48e+06 M⁻¹ s⁻¹
B1: full-length rat betaglycan ectodomain (domain or fragment)
chain: GPEPSTRCELSPINASHPVQALMESFTVLSGCASRGTTGLPREVHVLNLRSTDQGPGQRQREVTLHLNPIASVHTHHKPIVFLLNSPQPLVWHLKTERLAAGVPRLFLVSEGSVVQFPSGNFSLTAETEERNFPQENEHLLRWAQKEYGAVTSFTELKIARNIYIKVGEDQVFPPTCNIGKNFLSLNYLAEYLQPKAAEGCVLPSQPHEKEVHIIELITPSSNPYSAFQVDIIVDIRPAQEDPEVVKNLVLILKCKKSVNWVIKSFDVKGNLKVIAPNSIGFGKESERSMTMTKLVRDDIPSTQENLMKWALDNGYRPVTSYTMAPVANRFHLRLENNEEMRDEEVHTIPPELRILLDPDHPPALDNPLFPGEGSPNGGLPFPFPDIPRRGWKEGEDRIPRPKQPIVPSVQLLPDHREPEEVQGGVDIALSVKCDHEKMVVAVDKDSFQTNGYSGMELTLLDPSCKAKMNGTHFVLESPLNGCGTRHRRSTPDGVVYYNSIVVQAPSPGDSSGWPDGYEDLESGDNGFPGDGDEGETAPLSRAGVVVFNCSLRQLRNPSGFQGQLDGNATFNMELYNTDLFLVPSPGVFSVAENEHVYVEVSVTKADQDLGFAIQTCFLSPYSNPDRMSDYTIIENICPKDDSVKFYSSKRVHFPIPHAEVDKKRFSFLFKSVFNTSLLFLHCELTLCSRKKGSLKLPRCVTPDDACTSLDATMIWTMMQNKKTFTKPLAVVLQVDYKENVPSTKDSSPIPPPPPQIFHGLDTLTV
